Molecular target: ΔN−3 gp17.1 (bacteriophage SPP1) (UniProt O48449)
Experiment: cryo-EM structure; helical reconstruction of polymerized ΔN−3 gp17.1 tubes, 20 mM Tris-HCl pH 7.4 in place of phosphate; the most straight tubes selected; C6, rise 38.46 Å, twist 21.89°; atomic model by hybrid calculation (ISD) with solid-state NMR restraints from gp17.1 tubes

## ΔN−3 gp17.1 (from UniProt O48449 1-264) (natural protein)
  stoichiometry N: 6
